Measurements: patent US20140087995A1 (published 2014)
Numbered stars: 1 amine (or outer) side, 2 acyl side, 3 side chain; on linkers, the order of the positions; unused ones are H or OH. Bridge positions count the residues as written; N and C are the ends. Side chains are listed from the residue outwards. Ends that are not written are not given here. * marks the point of attachment. C20 diacid = O=C(O)CCCCCCCCCCCCCCCCCCC(=O)*; γGlu = O=C(O)[C@H](CCC(=O)[*:2])N[*:1]

T1: human amylin receptor (human, UniProt P30988 25-474; O60896 24-148, limits assumed)
T1 construct: whole, on cells; Calcitonin receptor plus RAMP-3 gives the amylin 3(a) receptor; membranes of Amylin 3(a)/CRE-luc cells were used; also called hAmylin-R; hAmylinR
T1 sequence (looked up) 1: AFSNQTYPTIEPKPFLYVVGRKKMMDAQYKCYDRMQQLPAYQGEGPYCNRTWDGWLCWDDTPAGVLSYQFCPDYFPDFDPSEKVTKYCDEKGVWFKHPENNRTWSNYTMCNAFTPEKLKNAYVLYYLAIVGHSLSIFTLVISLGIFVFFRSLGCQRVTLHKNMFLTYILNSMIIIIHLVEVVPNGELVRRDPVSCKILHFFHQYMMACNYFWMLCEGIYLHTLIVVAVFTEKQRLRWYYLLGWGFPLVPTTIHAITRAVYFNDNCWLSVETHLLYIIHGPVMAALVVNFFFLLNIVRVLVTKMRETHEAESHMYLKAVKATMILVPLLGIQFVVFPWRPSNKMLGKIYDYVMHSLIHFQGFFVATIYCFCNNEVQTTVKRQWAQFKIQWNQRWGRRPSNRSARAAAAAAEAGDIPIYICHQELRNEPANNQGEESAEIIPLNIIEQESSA
T1 sequence (looked up) 2: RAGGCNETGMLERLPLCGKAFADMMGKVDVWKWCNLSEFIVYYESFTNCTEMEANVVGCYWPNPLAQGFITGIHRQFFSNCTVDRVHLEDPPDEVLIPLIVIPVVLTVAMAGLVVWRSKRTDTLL

B1: N^ε1-[(4S)-4-carboxy-4-[[(4S)-4-carboxy-4-(19-carboxynonadecanoylamino)butanoyl]amino]butanoyl]-[Glu14,Arg17,Pro21,Pro27,Pro37]-h-amylin (peptide)
peptide: K([γGlu-γGlu-C20 diacid])CNTATCATQRLAEFLRHSSPNFGAIPSSTNVGSNTP-NH2
modifications: disulfide 2-7; N-terminus assumed
SMILES: CC[C@H](C)[C@H](NC(=O)[C@H](C)NC(=O)CNC(=O)[C@H](Cc1ccccc1)NC(=O)[C@H](CC(N)=O)NC(=O)[C@@H]1CCCN1C(=O)[C@H](CO)NC(=O)[C@H](CO)NC(=O)[C@H](Cc1c[nH]cn1)NC(=O)[C@H](CCCNC(=N)N)NC(=O)[C@H](CC(C)C)NC(=O)[C@H](Cc1ccccc1)NC(=O)[C@H](CCC(=O)O)NC(=O)[C@H](C)NC(=O)[C@H](CC(C)C)NC(=O)[C@H](CCCNC(=N)N)NC(=O)[C@H](CCC(N)=O)NC(=O)[C@@H](NC(=O)[C@H](C)NC(=O)[C@@H]1CSSC[C@H](NC(=O)[C@@H](N)CCCCNC(=O)CC[C@H](NC(=O)CC[C@H](NC(=O)CCCCCCCCCCCCCCCCCCC(=O)O)C(=O)O)C(=O)O)C(=O)N[C@@H](CC(N)=O)C(=O)N[C@@H]([C@@H](C)O)C(=O)N[C@@H](C)C(=O)N[C@@H]([C@@H](C)O)C(=O)N1)[C@@H](C)O)C(=O)N1CCC[C@H]1C(=O)N[C@@H](CO)C(=O)N[C@@H](CO)C(=O)N[C@H](C(=O)N[C@@H](CC(N)=O)C(=O)N[C@H](C(=O)NCC(=O)N[C@@H](CO)C(=O)N[C@@H](CC(N)=O)C(=O)N[C@H](C(=O)N1CCC[C@H]1C(N)=O)[C@@H](C)O)C(C)C)[C@@H](C)O
notes: also called 14E, 17R, 21P, 27P, 37P
B2: N^ε1-[(4S)-4-carboxy-4-[[(4S)-4-carboxy-4-(19-carboxynonadecanoylamino)butanoyl]amino]butanoyl]-[His14,Arg17,Pro21,Pro27]-h-amylin (peptide)
peptide: K([γGlu-γGlu-C20 diacid])CNTATCATQRLAHFLRHSSPNFGAIPSSTNVGSNTY-NH2
modifications: disulfide 2-7; N-terminus assumed
SMILES: CC[C@H](C)[C@H](NC(=O)[C@H](C)NC(=O)CNC(=O)[C@H](Cc1ccccc1)NC(=O)[C@H](CC(N)=O)NC(=O)[C@@H]1CCCN1C(=O)[C@H](CO)NC(=O)[C@H](CO)NC(=O)[C@H](Cc1c[nH]cn1)NC(=O)[C@H](CCCNC(=N)N)NC(=O)[C@H](CC(C)C)NC(=O)[C@H](Cc1ccccc1)NC(=O)[C@H](Cc1c[nH]cn1)NC(=O)[C@H](C)NC(=O)[C@H](CC(C)C)NC(=O)[C@H](CCCNC(=N)N)NC(=O)[C@H](CCC(N)=O)NC(=O)[C@@H](NC(=O)[C@H](C)NC(=O)[C@@H]1CSSC[C@H](NC(=O)[C@@H](N)CCCCNC(=O)CC[C@H](NC(=O)CC[C@H](NC(=O)CCCCCCCCCCCCCCCCCCC(=O)O)C(=O)O)C(=O)O)C(=O)N[C@@H](CC(N)=O)C(=O)N[C@@H]([C@@H](C)O)C(=O)N[C@@H](C)C(=O)N[C@@H]([C@@H](C)O)C(=O)N1)[C@@H](C)O)C(=O)N1CCC[C@H]1C(=O)N[C@@H](CO)C(=O)N[C@@H](CO)C(=O)N[C@H](C(=O)N[C@@H](CC(N)=O)C(=O)N[C@H](C(=O)NCC(=O)N[C@@H](CO)C(=O)N[C@@H](CC(N)=O)C(=O)N[C@H](C(=O)N[C@@H](Cc1ccc(O)cc1)C(N)=O)[C@@H](C)O)C(C)C)[C@@H](C)O
notes: also called 14H, 17R, 21P, 27P
B3: N^ε1-[(4S)-4-carboxy-4-[[(4S)-4-carboxy-4-(19-carboxynonadecanoylamino)butanoyl]amino]butanoyl]-[Glu14,Arg17,Pro21,Pro31,Pro34,Glu35]-h-amylin (peptide)
peptide: K([γGlu-γGlu-C20 diacid])CNTATCATQRLAEFLRHSSPNFGAILSSTPVGPETY-NH2
modifications: disulfide 2-7 (inferred)
notes: also called 14E, 17R, 21P, 31P, 34P, 35E
B4: N^ε1-[(4S)-4-carboxy-4-[[(4S)-4-carboxy-4-(19-carboxynonadecanoylamino)butanoyl]amino]butanoyl]-[Ser14,Arg17,Pro21,Pro27,Pro34,Glu35]-h-amylin (peptide)
peptide: K([γGlu-γGlu-C20 diacid])CNTATCATQRLASFLRHSSPNFGAIPSSTNVGPETY-NH2
modifications: disulfide 2-7; N-terminus assumed
SMILES: CC[C@H](C)[C@H](NC(=O)[C@H](C)NC(=O)CNC(=O)[C@H](Cc1ccccc1)NC(=O)[C@H](CC(N)=O)NC(=O)[C@@H]1CCCN1C(=O)[C@H](CO)NC(=O)[C@H](CO)NC(=O)[C@H](Cc1c[nH]cn1)NC(=O)[C@H](CCCNC(=N)N)NC(=O)[C@H](CC(C)C)NC(=O)[C@H](Cc1ccccc1)NC(=O)[C@H](CO)NC(=O)[C@H](C)NC(=O)[C@H](CC(C)C)NC(=O)[C@H](CCCNC(=N)N)NC(=O)[C@H](CCC(N)=O)NC(=O)[C@@H](NC(=O)[C@H](C)NC(=O)[C@@H]1CSSC[C@H](NC(=O)[C@@H](N)CCCCNC(=O)CC[C@H](NC(=O)CC[C@H](NC(=O)CCCCCCCCCCCCCCCCCCC(=O)O)C(=O)O)C(=O)O)C(=O)N[C@@H](CC(N)=O)C(=O)N[C@@H]([C@@H](C)O)C(=O)N[C@@H](C)C(=O)N[C@@H]([C@@H](C)O)C(=O)N1)[C@@H](C)O)C(=O)N1CCC[C@H]1C(=O)N[C@@H](CO)C(=O)N[C@@H](CO)C(=O)N[C@H](C(=O)N[C@@H](CC(N)=O)C(=O)N[C@H](C(=O)NCC(=O)N1CCC[C@H]1C(=O)N[C@@H](CCC(=O)O)C(=O)N[C@H](C(=O)N[C@@H](Cc1ccc(O)cc1)C(N)=O)[C@@H](C)O)C(C)C)[C@@H](C)O
notes: also called 14S, 17R, 21P, 27P, 34P, 35E
B5: N^ε1-[(4S)--4-carboxy-4-(19-carboxynonadecanoylamino)butanoyl]-[Glu14,Arg17,Pro21,Pro27,Pro37]-h-amylin (peptide)
peptide: K([γGlu-C20 diacid])CNTATCATQRLAEFLRHSSPNFGAIPSSTNVGSNTP-NH2
modifications: disulfide 2-7; N-terminus assumed
SMILES: CC[C@H](C)[C@H](NC(=O)[C@H](C)NC(=O)CNC(=O)[C@H](Cc1ccccc1)NC(=O)[C@H](CC(N)=O)NC(=O)[C@@H]1CCCN1C(=O)[C@H](CO)NC(=O)[C@H](CO)NC(=O)[C@H](Cc1c[nH]cn1)NC(=O)[C@H](CCCNC(=N)N)NC(=O)[C@H](CC(C)C)NC(=O)[C@H](Cc1ccccc1)NC(=O)[C@H](CCC(=O)O)NC(=O)[C@H](C)NC(=O)[C@H](CC(C)C)NC(=O)[C@H](CCCNC(=N)N)NC(=O)[C@H](CCC(N)=O)NC(=O)[C@@H](NC(=O)[C@H](C)NC(=O)[C@@H]1CSSC[C@H](NC(=O)[C@@H](N)CCCCNC(=O)CC[C@H](NC(=O)CCCCCCCCCCCCCCCCCCC(=O)O)C(=O)O)C(=O)N[C@@H](CC(N)=O)C(=O)N[C@@H]([C@@H](C)O)C(=O)N[C@@H](C)C(=O)N[C@@H]([C@@H](C)O)C(=O)N1)[C@@H](C)O)C(=O)N1CCC[C@H]1C(=O)N[C@@H](CO)C(=O)N[C@@H](CO)C(=O)N[C@H](C(=O)N[C@@H](CC(N)=O)C(=O)N[C@H](C(=O)NCC(=O)N[C@@H](CO)C(=O)N[C@@H](CC(N)=O)C(=O)N[C@H](C(=O)N1CCC[C@H]1C(N)=O)[C@@H](C)O)C(C)C)[C@@H](C)O
notes: as for B1
B6: N^ε1N^ε1-[(4S)-4-carboxy-4-(19-carboxynonadecanoylamino)butanoyl]-[His14,Arg17,Pro21,Pro27,Pro34]-h-amylin (peptide)
peptide: K([γGlu-C20 diacid])CNTATCATQRLAHFLRHSSPNFGAIPSSTNVGPNTY-NH2
modifications: disulfide 2-7; N-terminus assumed
SMILES: CC[C@H](C)[C@H](NC(=O)[C@H](C)NC(=O)CNC(=O)[C@H](Cc1ccccc1)NC(=O)[C@H](CC(N)=O)NC(=O)[C@@H]1CCCN1C(=O)[C@H](CO)NC(=O)[C@H](CO)NC(=O)[C@H](Cc1c[nH]cn1)NC(=O)[C@H](CCCNC(=N)N)NC(=O)[C@H](CC(C)C)NC(=O)[C@H](Cc1ccccc1)NC(=O)[C@H](Cc1c[nH]cn1)NC(=O)[C@H](C)NC(=O)[C@H](CC(C)C)NC(=O)[C@H](CCCNC(=N)N)NC(=O)[C@H](CCC(N)=O)NC(=O)[C@@H](NC(=O)[C@H](C)NC(=O)[C@@H]1CSSC[C@H](NC(=O)[C@@H](N)CCCCNC(=O)CC[C@H](NC(=O)CCCCCCCCCCCCCCCCCCC(=O)O)C(=O)O)C(=O)N[C@@H](CC(N)=O)C(=O)N[C@@H]([C@@H](C)O)C(=O)N[C@@H](C)C(=O)N[C@@H]([C@@H](C)O)C(=O)N1)[C@@H](C)O)C(=O)N1CCC[C@H]1C(=O)N[C@@H](CO)C(=O)N[C@@H](CO)C(=O)N[C@H](C(=O)N[C@@H](CC(N)=O)C(=O)N[C@H](C(=O)NCC(=O)N1CCC[C@H]1C(=O)N[C@@H](CC(N)=O)C(=O)N[C@H](C(=O)N[C@@H](Cc1ccc(O)cc1)C(N)=O)[C@@H](C)O)C(C)C)[C@@H](C)O
notes: also called 14H, 17R, 21P, 27P, 34P

Target: T1, human amylin receptor
Assay: SPA competition binding, displacement of 125I-rat amylin from membranes with human amylin 3(a) receptor (Assay V)
Outline: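 Cell membranes were prepared by homogenisation in Na-HEPES/EDTA buffer, pH 7.4, and stored at −80° C. They were then coupled to SPA beads at 35 ng/μL final and exposed to compounds in assay buffer containing CaCl2, MgCl₂, OA and Tween20. After 120 min at 25° C, plates were counted and IC₅₀ derived.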

Row | IC50 | Binder
1 | 0.264 nM | B1
2 | 0.179 nM | B2
3 | 0.069 nM | B3
4 | 0.076 nM | B4
5 | 0.142 nM | B5
6 | 0.09 nM | B6
